Measured values taken from article PMC10666276 (Biochemistry, 2023).

Experiments:
[1] = test system: NC(=O)c1ccc[n+]([C@@H]2O[C@H](COP(=O)(O)OP(=O)(O)OC[C@H]3O[C@@H](n4cnc5c4ncn4ccnc54)[C@H](O)[C@@H]3O)[C@@H](O)[C@H]2O)c1; assay: purified protein; conditions: 50 mM sodium acetate pH 5.5, 150 mM NaCl, 500 μM CaCl2, 25 °C, 10 ng enzyme
Excerpt: fluorometric hydrolysis assay, Michaelis-Menten fit on AfNADase

[2] = molecular target: AfNADase^D219A/E220A (Aspergillus fumigatus) (UniProt Q4WL81); assay: crystal structure
[3] = molecular target: the molecule itself; assay: SEC

AfNADase (Aspergillus fumigatus Af293) showed a Km [1] of 54.8 ± 15.3 µM and a Vmax [1] of 4570 µmol/min/mg.

Molecule “AfNADase^D219A/E220A (from UniProt Q4WL81) (enzyme)” has a stoichiometry N [2] of 2.

B1: Aspergillus fumigatus NADase (AfNADase), wild type (enzyme)
chain: LQHTEDSLFPARCWPDPCAGITFQNDTYVCGDPRLGPVVLPQKFPLNNELRTYARFGALCPAEFLDKWATDVAPNGTYIYPPANGFALDTEEQPILGNATLPVGMKLDRFGSEYGTFLAPLGAPYIERSLPPSNLNTFDGMYPYNYHVYQVTKEFVVGLGPIAPWFEQPGMGTQFVTYTNVLGLIDDGYLRRLDESEYDEKVEYSNPYTPGPNQ
modifications: N-linked glycosylation sites (as observed in the wild-type structure 6YGE)
B1: binds [3].
